Measurements reported in patent US5710244A, “Derivatized calcitonins” (priority 1993, dated 1998).
Numbered stars: 1 amine (or outer) side, 2 acyl side, 3 side chain; on linkers, the order of the positions; unused ones are H or OH. Bridge positions count the residues as written; N and C are the ends. * marks the point of attachment. X1 = 2,2'‑bipyridine‑4,4'‑dicarboxylic acid, O=C(O)c1ccnc(-c2cc(C(=O)*)ccn2)c1; X2 = 2,2'‑bipyridine‑5,5'‑dicarboxylic acid, O=C(O)c1ccc(-c2ccc(C(=O)*)cn2)nc1; Biphenyldicarbonyl(4,4') = O=C(c1ccc(-c2ccc(C(=O)[*:2])cc2)cc1)[*:1]; Pyrazinecarbonyl = O=C(c1cnccn1)*; Nicotinoyl = O=C(c1cccnc1)*

Experiments:
[1] = system: endogenous hamster calcitonin receptor; assay: CRE-linked luciferase (cyclic AMP) induction in BHK cells expressing endogenous hamster calcitonin receptor; type: cell-based; conditions: for % SCT EC50, Hamster CT receptor: EC50 as % of salmon calcitonin (SCT) EC50, CRE-luciferase, BHK cells, 4 h induction
Procedure: A BHK cell line expressing the endogenous hamster calcitonin receptor was transfected with plasmid KZ10-20-48 to provide the CRE-inducible luciferase receptor described above. The transfected cells were cultured in selective growth medium containing both 500 μg/mL G418-neomycin and 250 nM methotrexate.
Cells expressing the calcitonin receptor were assayed in triplicate for the induction of the CRE-linked luciferase response to salmon calcitonin (SCT) and derivatized calcitonins at concentrations ranging from 10^-13 M to 10^-6 M. MICROLITE flat bottom tissue culture plates (Baxter Scientific Products, Chicago, Ill.) were set up such that each well contained 2×10^4 cells in 100 μl of selection media, and the cells were grown overnight. SCT and GF43 were prepared at 2X the final assay concentration to give 10^-13 to 10^-6 M in growth medium. Induction was initiated by removing old medium from the wells and adding 100 μl of fresh growth medium and 100 μl of either 2X solution in triplicate sample wells. Uninduced luciferase levels were determined in triplicate wells to which 100 μl of DMEM containing 10% fetal calf serum was added. The plates were incubated for four hours at 37° C., 5% CO2 to allow induction of luciferase. Following induction, the media were removed, and the wells were washed once with 200 μl/well PBS. After the wash, 20 μl of a 1:5 dilution (in sterile water) of the stock Cell Culture Lysis Reagent (Luciferase Assay System, Promega Corp., Madison, Wis.) was added to each well, and the plates were incubated for 15 minutes at room temperature. The plates were transferred to a Labsystems Luminoskan microtiter luminometer (Labsystems Inc., Morton Grove, Ill.) which added 40 μl of Luciferase Assay Substrate (Luciferase Assay System, Promega), mixed the reaction for three seconds and integrated the luciferase signal for two seconds per well. The fold induction of luciferase for each compound was calculated as follows:
Fold induction=Induced signal-Uninduced signal Uninduced signal

[2] = target: endogenous hamster calcitonin receptor (hamster)
[3] = target: T1, recombinant human calcitonin receptor (human, UniProt P30988); assay: cell-based or functional assay
T1 sequence: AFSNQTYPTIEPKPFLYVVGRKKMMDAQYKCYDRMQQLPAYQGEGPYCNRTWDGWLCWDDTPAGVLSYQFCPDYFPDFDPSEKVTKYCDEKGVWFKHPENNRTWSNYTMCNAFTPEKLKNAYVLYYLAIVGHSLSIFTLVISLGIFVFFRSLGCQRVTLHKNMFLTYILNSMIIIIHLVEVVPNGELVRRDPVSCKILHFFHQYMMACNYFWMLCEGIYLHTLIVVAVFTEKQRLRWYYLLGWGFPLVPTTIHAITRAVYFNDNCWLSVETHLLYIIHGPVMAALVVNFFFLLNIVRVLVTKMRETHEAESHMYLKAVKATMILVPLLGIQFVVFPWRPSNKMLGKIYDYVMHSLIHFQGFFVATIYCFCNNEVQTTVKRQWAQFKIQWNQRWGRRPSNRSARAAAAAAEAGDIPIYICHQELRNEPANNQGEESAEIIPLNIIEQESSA

For “ZP-10: nipecotic acid modified salmon calcitonin”, the “% SCT EC50, Hamster CT receptor” value [1] was 152%.

For “ZP-2: 2,2'-bipyridine-5,5'-dicarboxylic acid modified salmon calcitonin”, the “% SCT EC50, Hamster CT receptor” value [1] was 125%.

Work on “human calcitonin (from UniProt P01258) (peptide)” yielded a % SCT EC50 (CRE-linked luciferase induction) [2] of 5900 % SCT EC50.

For “human calcitonin [HCT, reference compound]”, the “% SCT EC50, Hamster CT receptor (× 10^3)” value ([1]; EC50 as % of SCT EC50, the factor × 10^3 is printed under the HCT value only) was 5.9 × 10^3%.

“ZP-7: 2-Pyrazinoyl-modified salmon calcitonin” was tested, and the “% SCT EC50, Hamster CT receptor” value [1] was 155%.

In the case of “ZP-3: 4-4'-biphenyldicarboxylic acid modified salmon calcitonin”, the “% SCT EC50, Hamster CT receptor” value [1] is reported as 341%.

B1: 2,2'-bipyridine-5,5'-dicarboxylic acid modified salmon calcitonin (peptide)
peptide: X2-CSNLSTCVLGKLSQELHKLQTYPRTNTGSGTP-NH2
modifications: disulfide 1-7
SMILES: CC(C)C[C@H](NC(=O)[C@H](CCCCN)NC(=O)CNC(=O)[C@H](CC(C)C)NC(=O)[C@@H](NC(=O)[C@@H]1CSSC[C@H](NC(=O)c2ccc(-c3ccc(C(=O)O)cn3)nc2)C(=O)N[C@@H](CO)C(=O)N[C@@H](CC(N)=O)C(=O)N[C@@H](CC(C)C)C(=O)N[C@@H](CO)C(=O)N[C@@H]([C@@H](C)O)C(=O)N1)C(C)C)C(=O)N[C@@H](CO)C(=O)N[C@@H](CCC(N)=O)C(=O)N[C@@H](CCC(=O)O)C(=O)N[C@@H](CC(C)C)C(=O)N[C@@H](Cc1c[nH]cn1)C(=O)N[C@@H](CCCCN)C(=O)N[C@@H](CC(C)C)C(=O)N[C@@H](CCC(N)=O)C(=O)N[C@H](C(=O)N[C@@H](Cc1ccc(O)cc1)C(=O)N1CCC[C@H]1C(=O)N[C@@H](CCCNC(=N)N)C(=O)N[C@H](C(=O)N[C@@H](CC(N)=O)C(=O)N[C@H](C(=O)NCC(=O)N[C@@H](CO)C(=O)NCC(=O)N[C@H](C(=O)N1CCC[C@H]1C(N)=O)[C@@H](C)O)[C@@H](C)O)[C@@H](C)O)[C@@H](C)O
B1 was tested, and the % SCT EC50 (CRE-linked luciferase induction) [2] was 125 % SCT EC50 and the “% SCT EC50 (CRE-linked luciferase induction)” value [3] was 199 % SCT EC50.

B2: 4-4'-biphenyldicarboxylic acid modified salmon calcitonin (peptide)
peptide: {Biphenyldicarbonyl(4,4')}-CSNLSTCVLGKLSQELHKLQTYPRTNTGSGTP-NH2
modifications: disulfide 1-7
SMILES: CC(C)C[C@H](NC(=O)[C@H](CCCCN)NC(=O)CNC(=O)[C@H](CC(C)C)NC(=O)[C@@H](NC(=O)[C@@H]1CSSC[C@H](NC(=O)c2ccc(-c3ccc(C(=O)O)cc3)cc2)C(=O)N[C@@H](CO)C(=O)N[C@@H](CC(N)=O)C(=O)N[C@@H](CC(C)C)C(=O)N[C@@H](CO)C(=O)N[C@@H]([C@@H](C)O)C(=O)N1)C(C)C)C(=O)N[C@@H](CO)C(=O)N[C@@H](CCC(N)=O)C(=O)N[C@@H](CCC(=O)O)C(=O)N[C@@H](CC(C)C)C(=O)N[C@@H](Cc1c[nH]cn1)C(=O)N[C@@H](CCCCN)C(=O)N[C@@H](CC(C)C)C(=O)N[C@@H](CCC(N)=O)C(=O)N[C@H](C(=O)N[C@@H](Cc1ccc(O)cc1)C(=O)N1CCC[C@H]1C(=O)N[C@@H](CCCNC(=N)N)C(=O)N[C@H](C(=O)N[C@@H](CC(N)=O)C(=O)N[C@H](C(=O)NCC(=O)N[C@@H](CO)C(=O)NCC(=O)N[C@H](C(=O)N1CCC[C@H]1C(N)=O)[C@@H](C)O)[C@@H](C)O)[C@@H](C)O)[C@@H](C)O
In the case of B2, the % SCT EC50 (CRE-linked luciferase induction) [2] is reported as 341 % SCT EC50 and the “% SCT EC50 (CRE-linked luciferase induction)” value [3] is reported as 450 % SCT EC50.

B3: Pycolinyl-modified Calcitonin (peptide)
peptide: {picolinic acid}-CSNLSTCVLGKLSQELHKLQTYPRTNTGSGTP-NH2
modifications: disulfide 1-7
In the case of B3, the % SCT EC50 (CRE-linked luciferase induction) [2] is reported as 98 % SCT EC50 and the “% SCT EC50 (CRE-linked luciferase induction)” value [3] is reported as 140 % SCT EC50.

B4: isonipecotic acid modified salmon calcitonin (peptide)
peptide: CSNLSTCVLGKLSQELHKLQTYPRTNTGSGTP
modifications: N-terminal amino group acylated with isonipecotic acid (amide linkage); C-terminal amide; disulfide Cys1-Cys7
In the case of B4, the % SCT EC50 (CRE-linked luciferase induction) [2] is reported as 106 % SCT EC50 and the “% SCT EC50 (CRE-linked luciferase induction)” value [3] is reported as 146 % SCT EC50.

B5: DL-pipecolinic acid modified salmon calcitonin (peptide)
peptide: B4 peptide
modifications: N-terminal amino group acylated with DL-pipecolinic acid (amide linkage); C-terminal amide; disulfide Cys1-Cys7
B5 was tested, and the % SCT EC50 (CRE-linked luciferase induction) [2] was 147 % SCT EC50 and the “% SCT EC50 (CRE-linked luciferase induction)” value [3] was 230 % SCT EC50.

B6: 2-Pyrazinoyl-modified calcitonin (peptide)
peptide: Pyrazinecarbonyl-CSNLSTCVLGKLSQELHKLQTYPRTNTGSGTP-NH2
modifications: disulfide 1-7
SMILES: CC(C)C[C@H](NC(=O)[C@H](CCCCN)NC(=O)CNC(=O)[C@H](CC(C)C)NC(=O)[C@@H](NC(=O)[C@@H]1CSSC[C@H](NC(=O)c2cnccn2)C(=O)N[C@@H](CO)C(=O)N[C@@H](CC(N)=O)C(=O)N[C@@H](CC(C)C)C(=O)N[C@@H](CO)C(=O)N[C@@H]([C@@H](C)O)C(=O)N1)C(C)C)C(=O)N[C@@H](CO)C(=O)N[C@@H](CCC(N)=O)C(=O)N[C@@H](CCC(=O)O)C(=O)N[C@@H](CC(C)C)C(=O)N[C@@H](Cc1c[nH]cn1)C(=O)N[C@@H](CCCCN)C(=O)N[C@@H](CC(C)C)C(=O)N[C@@H](CCC(N)=O)C(=O)N[C@H](C(=O)N[C@@H](Cc1ccc(O)cc1)C(=O)N1CCC[C@H]1C(=O)N[C@@H](CCCNC(=N)N)C(=O)N[C@H](C(=O)N[C@@H](CC(N)=O)C(=O)N[C@H](C(=O)NCC(=O)N[C@@H](CO)C(=O)NCC(=O)N[C@H](C(=O)N1CCC[C@H]1C(N)=O)[C@@H](C)O)[C@@H](C)O)[C@@H](C)O)[C@@H](C)O
For B6, the % SCT EC50 (CRE-linked luciferase induction) [2] was 155 % SCT EC50 and the “% SCT EC50 (CRE-linked luciferase induction)” value [3] was 158 % SCT EC50.

B7: Bipyridine-modified Calcitonin (peptide)
peptide: X1-CSNLSTCVLGKLSQELHKLQTYPRTNTGSGTP-NH2
modifications: disulfide 1-7
SMILES: CC(C)C[C@H](NC(=O)[C@H](CCCCN)NC(=O)CNC(=O)[C@H](CC(C)C)NC(=O)[C@@H](NC(=O)[C@@H]1CSSC[C@H](NC(=O)c2ccnc(-c3cc(C(=O)O)ccn3)c2)C(=O)N[C@@H](CO)C(=O)N[C@@H](CC(N)=O)C(=O)N[C@@H](CC(C)C)C(=O)N[C@@H](CO)C(=O)N[C@@H]([C@@H](C)O)C(=O)N1)C(C)C)C(=O)N[C@@H](CO)C(=O)N[C@@H](CCC(N)=O)C(=O)N[C@@H](CCC(=O)O)C(=O)N[C@@H](CC(C)C)C(=O)N[C@@H](Cc1c[nH]cn1)C(=O)N[C@@H](CCCCN)C(=O)N[C@@H](CC(C)C)C(=O)N[C@@H](CCC(N)=O)C(=O)N[C@H](C(=O)N[C@@H](Cc1ccc(O)cc1)C(=O)N1CCC[C@H]1C(=O)N[C@@H](CCCNC(=N)N)C(=O)N[C@H](C(=O)N[C@@H](CC(N)=O)C(=O)N[C@H](C(=O)NCC(=O)N[C@@H](CO)C(=O)NCC(=O)N[C@H](C(=O)N1CCC[C@H]1C(N)=O)[C@@H](C)O)[C@@H](C)O)[C@@H](C)O)[C@@H](C)O
In the case of B7, the % SCT EC50 (CRE-linked luciferase induction) [2] is reported as 73 % SCT EC50 and the “% SCT EC50 (CRE-linked luciferase induction)” value [3] is reported as 97 % SCT EC50.

B8: Nicotinic acid-modified Calcitonin (peptide)
peptide: Nicotinoyl-CSNLSTCVLGKLSQELHKLQTYPRTNTGSGTP-NH2
modifications: disulfide 1-7
SMILES: CC(C)C[C@H](NC(=O)[C@H](CCCCN)NC(=O)CNC(=O)[C@H](CC(C)C)NC(=O)[C@@H](NC(=O)[C@@H]1CSSC[C@H](NC(=O)c2cccnc2)C(=O)N[C@@H](CO)C(=O)N[C@@H](CC(N)=O)C(=O)N[C@@H](CC(C)C)C(=O)N[C@@H](CO)C(=O)N[C@@H]([C@@H](C)O)C(=O)N1)C(C)C)C(=O)N[C@@H](CO)C(=O)N[C@@H](CCC(N)=O)C(=O)N[C@@H](CCC(=O)O)C(=O)N[C@@H](CC(C)C)C(=O)N[C@@H](Cc1c[nH]cn1)C(=O)N[C@@H](CCCCN)C(=O)N[C@@H](CC(C)C)C(=O)N[C@@H](CCC(N)=O)C(=O)N[C@H](C(=O)N[C@@H](Cc1ccc(O)cc1)C(=O)N1CCC[C@H]1C(=O)N[C@@H](CCCNC(=N)N)C(=O)N[C@H](C(=O)N[C@@H](CC(N)=O)C(=O)N[C@H](C(=O)NCC(=O)N[C@@H](CO)C(=O)NCC(=O)N[C@H](C(=O)N1CCC[C@H]1C(N)=O)[C@@H](C)O)[C@@H](C)O)[C@@H](C)O)[C@@H](C)O
With B8 the % SCT EC50 (CRE-linked luciferase induction) [2] was 71 % SCT EC50 and the “% SCT EC50 (CRE-linked luciferase induction)” value [3] was 112 % SCT EC50.

B9: nipecotic acid modified salmon calcitonin (peptide)
peptide: {nipecotic acid}-CSNLSTCVLGKLSQELHKLQTYPRTNTGSGTP-NH2
modifications: disulfide 1-7
B9 was tested, and the % SCT EC50 (CRE-linked luciferase induction) [2] was 152 % SCT EC50 and the “% SCT EC50 (CRE-linked luciferase induction)” value [3] was 243 % SCT EC50.
